Changes are numbered by the printed parent chain. In names and notes the source's numbering stands.
T1: vinculin D1 (Mus musculus, UniProt Q64727)
T1 chain: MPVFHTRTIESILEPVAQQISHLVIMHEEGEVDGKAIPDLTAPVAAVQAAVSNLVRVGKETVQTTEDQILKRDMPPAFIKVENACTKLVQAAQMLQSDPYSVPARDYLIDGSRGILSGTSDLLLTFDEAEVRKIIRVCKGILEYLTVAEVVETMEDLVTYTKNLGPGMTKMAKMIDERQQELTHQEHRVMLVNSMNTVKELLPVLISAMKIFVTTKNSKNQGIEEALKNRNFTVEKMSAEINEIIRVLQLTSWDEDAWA

T2: β-catenin–N-cadherin cytoplasmic tail complex (Mus musculus | , UniProt Q02248 1-781; P15116 746-906)
T2 construct: β-catenin, Mus musculus, full length; N-cadherin cytoplasmic tail (Ncad_(cyto)); the methods name no plasmid for the N-cadherin tail; also called β-catenin–Ncad_(cyto); β-cat–Ncad_(cyto); source: β-catenin: E. coli BL21-Gold, purified
T2 sequence (looked up) 1: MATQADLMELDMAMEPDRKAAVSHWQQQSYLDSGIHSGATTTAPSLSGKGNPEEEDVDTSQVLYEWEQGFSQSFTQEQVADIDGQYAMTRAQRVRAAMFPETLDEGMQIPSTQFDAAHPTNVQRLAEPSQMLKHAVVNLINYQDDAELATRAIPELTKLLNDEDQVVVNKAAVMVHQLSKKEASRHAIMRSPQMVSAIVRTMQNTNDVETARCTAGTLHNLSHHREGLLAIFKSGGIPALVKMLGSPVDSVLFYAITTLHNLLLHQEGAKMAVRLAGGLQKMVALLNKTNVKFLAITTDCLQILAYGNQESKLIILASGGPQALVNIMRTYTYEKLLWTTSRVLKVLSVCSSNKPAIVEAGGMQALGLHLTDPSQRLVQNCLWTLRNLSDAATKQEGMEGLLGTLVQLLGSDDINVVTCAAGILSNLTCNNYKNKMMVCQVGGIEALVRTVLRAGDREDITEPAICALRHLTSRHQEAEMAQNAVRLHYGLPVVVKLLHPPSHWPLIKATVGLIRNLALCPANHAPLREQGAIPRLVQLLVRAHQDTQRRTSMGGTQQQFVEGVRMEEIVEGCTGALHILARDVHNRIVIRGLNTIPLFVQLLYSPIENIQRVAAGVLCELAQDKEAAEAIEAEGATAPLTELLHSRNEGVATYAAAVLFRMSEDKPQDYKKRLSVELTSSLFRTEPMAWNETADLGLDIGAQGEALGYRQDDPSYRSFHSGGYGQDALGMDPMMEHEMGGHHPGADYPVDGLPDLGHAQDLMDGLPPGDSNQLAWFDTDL
T2 sequence (looked up) 2: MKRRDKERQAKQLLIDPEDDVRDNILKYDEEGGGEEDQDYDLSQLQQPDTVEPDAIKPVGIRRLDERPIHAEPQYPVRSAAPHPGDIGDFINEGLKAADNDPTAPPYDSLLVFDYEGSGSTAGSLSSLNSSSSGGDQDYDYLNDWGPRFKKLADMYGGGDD

B1: 2I27–αT-catenin M1-M3–2I27 259-667 (protein)
chain: IQNAPAPPEPQAATLGSAFDELENLIVLNPLTVTEEDVRPSLEKRLEAIISGAALLADSSCTRDLHRERIIAECNAIRQALQDLLTEYMSNTGKTERSNTLNTAIVNMSKKTRDLRRQLRKAIIDHISDSFLDTTVPLLVLIEAAKNGRVKEIKDYAAIFHEHTGRLVEVANLACSMSTNEDGIKIVRIAANHLETLCPQIINAALALASRPKSQVVKNTMEMYKRTWEHYIHVLTEAVDDITSIDDFLAVSESHILEDVNKCIIALRDQDADNLDRAAGAIRGRAARVAHIVAGEMDSYEPGAYTEGVMRNVNFLTSTVIPEFVTQVNVALDALSKNSLTALDDNQFVDISKKIYDTIHDIRCSVMMIRTPEELEDVSDLEDDHEVRSHTSIQTEGKTDRAKMTQLPE
modifications: 2I27 fusion at both ends
B2: αT-catenin head region (aa 1–659) (domain or fragment, Mus musculus, UniProt Q65CL1 1-659, looked up)
chain: MSAETPITLNMDTQDLQIQTFTVEKLLEPLIIQVTTLVNCPQNPSNRKKGRSKRARVLLASVEEATWNLLDKGEMIAKEATVLKEELAAALQEVRKESKALKVSAERFTDDPCYLPKREAVVQAARALLAAVTRLLVLADMIDVMCLLQHVSSFQRTFESLKNVSNKSDLQRTYQKLGKELESLDYLAFKRQQDLKSPSQRDEIAGARATLKENSPLLHSICSACLEHSDVASLKASKDTVCEEIQNALDVISNASQGIQNAPAPPEPQAATLGSAFDELENLIVLNPLTVTEEDVRPSLEKRLEAIISGAALLADSSCTRDLHRERIIAECNAIRQALQDLLTEYMSNTGKTERSNTLNTAIVNMSKKTRDLRRQLRKAIIDHISDSFLDTTVPLLVLIEAAKNGRVKEIKDYAAIFHEHTGRLVEVANLACSMSTNEDGIKIVRIAANHLETLCPQIINAALALASRPKSQVVKNTMEMYKRTWEHYIHVLTEAVDDITSIDDFLAVSESHILEDVNKCIIALRDQDADNLDRAAGAIRGRAARVAHIVAGEMDSYEPGAYTEGVMRNVNFLTSTVIPEFVTQVNVALDALSKNSLTALDDNQFVDISKKIYDTIHDIRCSVMMIRTPEELEDVSDLEDDHEVRSHTSIQTEGKTDR
notes: αT-catenin, Mus musculus, head region (N- and M-domains), aa 1-659; in pGEX-TEV; also called αT-catenin head (1–659); αT-catenin N1-M3 (aa 1–659); source: E. coli BL21-Gold, purified (glutathione-agarose, TEV cleavage, Mono Q or Mono S, S200)
B3: β-catenin (natural protein, Mus musculus, UniProt Q02248 1-781, looked up)
chain: T2 sequence (looked up) 1
notes: β-catenin, Mus musculus, full length; in pGEX-TEV; source: E. coli BL21-Gold, purified (glutathione-agarose, TEV cleavage, Mono Q or Mono S, S200)
B4: αT-catenin V94D N1-N2 (domain or fragment, Mus musculus, UniProt Q65CL1 1-259, looked up)
chain: MSAETPITLNMDTQDLQIQTFTVEKLLEPLIIQVTTLVNCPQNPSNRKKGRSKRARVLLASVEEATWNLLDKGEMIAKEATVLKEELAAALQEDRKESKALKVSAERFTDDPCYLPKREAVVQAARALLAAVTRLLVLADMIDVMCLLQHVSSFQRTFESLKNVSNKSDLQRTYQKLGKELESLDYLAFKRQQDLKSPSQRDEIAGARATLKENSPLLHSICSACLEHSDVASLKASKDTVCEEIQNALDVISNASQGI
notes: αT-catenin N1-N2 (aa 1-259) with V94D, a point mutation linked to arrhythmogenic ventricular cardiomyopathy in humans; also called V94D mutant; source: E. coli BL21-Gold, purified (glutathione-agarose, TEV cleavage, Mono Q or Mono S, S200)
B5: αT-catenin N1-N2 (aa 1–259) (domain or fragment, Mus musculus, UniProt Q65CL1 1-259, looked up)
chain: B4 chain with D94V
notes: αT-catenin, Mus musculus, N1-N2, aa 1-259; in pGEX-TEV; also called αT-catenin WT N1-N2; αT-catenin N1-N2 (1–259); source: E. coli BL21-Gold, purified (glutathione-agarose, TEV cleavage, Mono Q or Mono S, S200)

How the values were obtained:
vinculin D1 = molecular target: T1, vinculin D1; assay: ITC
[1] = molecular target: T2, β-catenin–N-cadherin cytoplasmic tail …; assay: ITC; β-catenin (110-150 μM) or β-catenin–Ncad_(cyto) complex (103-158 μM) injected into αT-catenin fragment in the cell; 25 °C; 20 mM Hepes pH 8.0, 150 mM NaCl, 1 mM TCEP; conditions: both partners purified
β-catenin = molecular target: B3; assay: as above; conditions: both partners purified
[2] = molecular target: B2; assay: as above; conditions: both partners purified
[3] = molecular target: the molecule itself; assay: SEC; analytical SEC of 30 μM protein

B1
Kd (vinculin D1): ~250 nM

B2
Kd [1]: 5.6 ± 0.6 nM
Kd (β-catenin): 264 ± 109 nM

B3
dH [2]: -14.6 ± 2.1 kcal/mol

B4
stoichiometry N [3]: 2

B5
Kd [1]: 6.9 ± 12 nM
